The record followed here is the supplement of paper PMC10567573.

± gives the standard deviation.

This series is described as follows: protein stability index of a GFP-peptide fusion (GPS, HEK-293T) (PSI 1-6); higher = more stable. To be noted: c terminus: a fixed tail appended.
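Further: 24-mer peptide tiles fused after GFP, lentivirally expressed, FACS-sorted into six equal bins by GFP/DsRed ratio, decoded by Illumina sequencing, PSI is the read-weighted mean bin number.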

For the sequence NSDDSYTCECLEGFRLAEDGKRCR [MATN2], the protein stability index reads like this: (treatment: DMSO) 3.54 ± 0.34; (treatment: MLN4924 1 uM, 8 h) 4.12 ± 0.67.
The corresponding values for NSIKNEKLEWAIDEDELRKSLSEL [PSD2] are 4.81 ± 0.15 and 4.72 ± 0.079.
The corresponding values for NTELEVKIRDWYQRQAPGPARDYS [KRT17] are 3.4 ± 0.35 and 3.48 ± 0.41.
As to NVLGAQLDVEAAHSEILKYFQSVT [STX5], the protein stability index is, setting by setting: (treatment: DMSO) 2.76 ± 0.25; (treatment: MLN4924 1 uM, 8 h) 2.88 ± 0.33.
With NVNETDDWGRTALHYAAASDMDRN [ANKRD44], the protein stability index runs as follows: (treatment: DMSO) 4.69 ± 0.15; (treatment: MLN4924 1 uM, 8 h) 4.77 ± 0.33.
Regarding NVYRKRRKYFADLAMNYKHGDPIP [TPH1], the protein stability index (treatment: DMSO) was determined as 2.75 ± 0.13 and the protein stability index (treatment: MLN4924 1 uM, 8 h) is 2.9 ± 0.26.
For the sequence NYCPQQTKITSAFKYINTVISCTI [EDNRA], the protein stability index by setting is: (treatment: DMSO) 3.3 ± 0.65; (treatment: MLN4924 1 uM, 8 h) 2.77 ± 0.18.
On to NYDKLSRSIRQYYKKGIIRKPDIS [SPDEF], for which the protein stability index is, setting by setting: (treatment: DMSO) 2.55 ± 0.21; (treatment: MLN4924 1 uM, 8 h) 2.74 ± 0.34.
The corresponding values for PADCKRKEEAGAPGGGAGMAAGFP [CEBPB] are 5.12 ± 0.35 and 5.29 ± 0.098.
Regarding PAEAEGAAQELENQMKERQGLFFD [TMEM120A], the protein stability index reads like this: (treatment: DMSO) 5.33 ± 0.1; (treatment: MLN4924 1 uM, 8 h) 5.26 ± 0.34.
In the case of PALHPAHAPQISYTGPSSSGRFAG [NCK2], the protein stability index (treatment: DMSO) stood at 4.02 ± 0.15 and the protein stability index (treatment: MLN4924 1 uM, 8 h) was 4.15 ± 0.12.
In turn, PAPCADGPAGGLADLSSGSSGEDD [PWWP2B] showed a protein stability index (treatment: DMSO) of 5.51 ± 0.23 and a protein stability index (treatment: MLN4924 1 uM, 8 h) of 5.66 ± 0.15.
As to PAPSRMQMPQGNPLLLSHTLQELL [SNX8], the protein stability index amounted to 3.08 ± 0.21 (treatment: DMSO) and 3.1 ± 0.22 (treatment: MLN4924 1 uM, 8 h).
With PASDLEAALEAAGEGLNVIQQTTR [NANOGP8], the protein stability index is 4.93 ± 0.17 (treatment: DMSO) and 4.95 ± 0.44 (treatment: MLN4924 1 uM, 8 h).
Turning to PAWGHCFYRLYQDLETHRLPCTSR [SCNN1D], the protein stability index runs as follows: (treatment: DMSO) 2.32 ± 0.12; (treatment: MLN4924 1 uM, 8 h) 2.62 ± 0.32.
For the sequence PDAPDHTSETSHSPLYADPYTPPA [PLEKHN1], the protein stability index turned out to be 5.22 ± 0.3 (treatment: DMSO) and 5.01 ± 0.28 (treatment: MLN4924 1 uM, 8 h).
The corresponding values for PDDLLTTLDDTCDLFAPLVQETNK [ATF4] are 5.12 ± 0.23 and 5.14 ± 0.22.
For PDIMNLLIKSGAHFDATNLHKQTA [FEM1C], the protein stability index was 2.39 ± 0.14 (treatment: DMSO) and 2.29 ± 0.26 (treatment: MLN4924 1 uM, 8 h).
The corresponding values for PDNCEMFLNFNGMKLFLDCLKEFP [ZER1] are 2.25 ± 0.18 and 2.19 ± 0.33.
The corresponding values for PDPEPPPVTPQVGEGRKSRKFSRL [SMG5] are 3.98 ± 0.27 and 4.14 ± 0.45.
The corresponding values for PEDLQTDLAKLVDQQNPTLGETPE [ZNF449] are 5.62 ± 0.23 and 5.73 ± 0.2.
For the sequence PESRSLPSSPLRLGSYKAQKTSRS [PPEF2], the protein stability index by setting is: (treatment: DMSO) 5.29 ± 0.16; (treatment: MLN4924 1 uM, 8 h) 5.14 ± 0.24.
For PFDLEQQWQDLMSIMEMQAMEVNT [NFE2L1], the protein stability index runs as follows: (treatment: DMSO) 3.87 ± 0.17; (treatment: MLN4924 1 uM, 8 h) 4.03 ± 0.28.
The corresponding values for PFSSHTYSQASELPTDAVDCMSRE [FBXO34] are 5.25 ± 0.29 and 5.01 ± 0.075.
As to PGGGRLLLSTSLDAKDELEERLER [INTS3], the protein stability index by setting is: (treatment: DMSO) 4.94 ± 0.3; (treatment: MLN4924 1 uM, 8 h) 4.84 ± 0.15.
Take PGPGIGGDAHFDEDERWTNNFREY [MMP1]: the protein stability index runs as follows: (treatment: DMSO) 4.14 ± 0.39; (treatment: MLN4924 1 uM, 8 h) 4.2 ± 0.35.
The corresponding values for PHLRSFCETCVGSWSIQMRQHHHQ are 2.4 ± 0.25 and 2.34 ± 0.23.
In the case of PHRMDRRLLALIYLAHASDVLENA [GOLPH3], the protein stability index reads like this: (treatment: DMSO) 2.55 ± 0.27; (treatment: MLN4924 1 uM, 8 h) 2.34 ± 0.21.
Take PIDVVEKYDPKTQEWSFLPSITRK [KLHL12]: the protein stability index reads like this: (treatment: DMSO) 4.56 ± 0.27; (treatment: MLN4924 1 uM, 8 h) 4.64 ± 0.33.
The corresponding values for PIVSSLADPLDTPPDSKEGIVVES [PDZK1] are 5.37 ± 0.14 and 5.25 ± 0.48.
The corresponding values for PLDVVKVRLQSQRPSMASELMPSS [SLC25A39] are 3.65 ± 0.34 and 3.59 ± 0.36.
With PLLPLDMQGNQILVFPSSSSSSSS [ZBTB22], the protein stability index by setting is: (treatment: DMSO) 3.93 ± 0.24; (treatment: MLN4924 1 uM, 8 h) 4.1 ± 0.18.
The corresponding values for PNADLLFSDPSQSDPETKDFWLNM [FCHO1] are 4.2 ± 0.21 and 4.19 ± 0.19.
In the case of PNAGEQPGQVAGADFESEDEGEEF [EID1], the protein stability index runs as follows: (treatment: DMSO) 5.59 ± 0.28; (treatment: MLN4924 1 uM, 8 h) 5.46 ± 0.33.
PPAADAPVTQIGFEAPPLQGQAAA [TRIM55] displayed a protein stability index (treatment: DMSO) of 5.07 ± 0.47 and a protein stability index (treatment: MLN4924 1 uM, 8 h) of 5.15 ± 0.28.
The corresponding values for PPDSKEGIVVESNHDSHMAKERAH [PDZK1] are 5.55 ± 0.36 and 5.55 ± 0.23.
